Patent US20240279332A1 (Amgen, published 2024)
Changes are numbered by the printed parent chain.

T1: cyno TREM-1 on cells (cynomolgus monkey, UniProt A0A2K5VHG8 21-233)
T1 sequence: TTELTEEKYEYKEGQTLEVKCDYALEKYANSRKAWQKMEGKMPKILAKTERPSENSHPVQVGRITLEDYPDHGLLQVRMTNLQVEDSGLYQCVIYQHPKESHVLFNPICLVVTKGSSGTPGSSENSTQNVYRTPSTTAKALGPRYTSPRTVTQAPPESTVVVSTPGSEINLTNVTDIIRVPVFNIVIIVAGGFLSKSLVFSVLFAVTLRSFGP

B1: 49A2 (antibody, V domains shown)
VH: EVQLVESGGGLVQPGGSLRLSCAASGFTFSSNWMSWVRQAPGKGLDWMASMKQDGSEIYYVDSVKGRFTISRDNAKNSLHLQMNSLRAEDTAVYYCVRGGWRFESWGQGALVTVSS
VL: EIVMTQSPATLSVSPGERATLSCRASQSVSSNLAWYQQKSGQAPRLLIYGASIRATGIPARVSGSGSGTEFTFTISSLQSEDFAVYYCQQYKNWPLTLGGGTKVEIKR
B2: 50A12 (antibody, V domains shown)
VH: EVQLVESGGGLVQPGGSLRLSCAASGFTFSSYWMSWVRQAPGKGLEWVANIKQDGSEEYYVDSVKGRFTISRDNAKNSLFLQMNSLRAEDTAVYYCARDYGDSFDYWGQGTLVTVSS
VL: DIQMTQSPSSVSASVGDRVTITCRASQGIRKWLAWYQQKPGRAPKLLIYAASRLQSGVPSRFSGSGSGTDFTLTISSLRPEDFATYYCLQAHGFPWTFGQGTKVEIKR
B3: 64D7 (antibody, V domains shown)
VH: QVQLVQSGAEVKKPGASVKVSCKASGYTFTSYDINWVRQATGQGLEWMGWMNPNRGNTGYVKKFQGRVTMTRNTSISTAYMELSSLRSEDTAVYYCARRRAVYRSSWEWYFDLWGRGTLVTVSS
VL: DTQMTQSPSSLSASEGDRVTITCQASQDIFNDLNWYQEKPGKAPKLLIYHASNLETGVPSRFSGSGSGTDYTFTISSLQPEDIATYYCQQYGNLPLTFGGGTKVEIKR
B4: 66B8 (antibody, V domains shown)
VH: QVQLVQSGAEVKKPGASVKVSCKASGYTFTGYYMHWVRQAPGQGLEWMGWFKPNSGVTNYAQKFQGRVTMSRDTSISTAYMELSSLRSDDTAVYYCARAGYSTSWKDWFDPWGQGTLVTVSS
VL: DIQMTQFPSSVSASVGDRVTITCRASQGISRWLAWYQQKQGKAPKLLIYMVSSLQSGVPSRFSGSGSGTDFTLTISSLQPEDFATYYCQQSHNFPITFGQGTRLDIKR
B5: 44A5 (antibody, V domains shown)
VH: EVQLLESGGGLVQPGGSLRLSCAASGFTFSTYAMNWVRQAPGKGLEWVSTVSGSGRPTYYADSVKGRFTISRDNSKNTLYLQMNSLRAEDTAVYYCAKAYYSNYLFDYWGQGTLVTVSS
VL: EIVMTQSPAILSVSPGERATLSCRASQSVSSNLAWYQQKPGQAPRLLIYGASTRATGVPARFSGGGSGTDFTLTISSLQSEDFAVYYCQHCKTWPPLTFGGGTKVDLKR
B6: 57C10 (antibody, V domains shown)
VH: QVQLVQSGAEVKKPGASVKVSCKASGYTFTRYDINWVRQATGQGLEWMGWLNPNSGNTGQTQKFRGRVTMTRNTSINTAYMELSSLRSEDTAVYYCARGGYTSAWRWYFDLWGRGTLVTVSS
VL: DIQMTQSPSSLSASVGDRVTITCQASQDINNHLNWYQQKPGKAPKLLIYDVSNLETGVPSSFSGSGCGTDFTFTISSLQPEDIATYFCQQYDKLPLTFGGGTKVEIEG
B7: 61B12 (antibody, V domains shown)
VH: QVQLVQSGAEVTKPGASVKVSCKASGYTFTRYDINWVRQATGQGLEWMGWMNPNSGNSGSVQKFRGRVTMTRNTSITTVYMELSSLRSDDTAVYYCARGGISSSWHWAFDIWGQGTMVTVSS
VL: B6 VL with D50G, V51A, S52Y, N53T, S61R, C67S, F87Y, E107K, G108R
B8: 63F8 (antibody, V domains shown)
VH: QVQLVQSGAEVKKPGASVKVSCKASGYTFTSYDINWVRQATGQGLEWMGRMNPKSGNAGYVQNFRGRVTMTRNTSISTAYMELSSLRSEDTAVYYCARGGRTSIWSFVFDYWGQGTLVTVSS
VL: B6 VL with N30S, N31K, V51T, S61R, C67S, F87N, E107K, G108R
B9: 30H2 (antibody, V domains shown)
VH: EVQVLESGGGLVQPGESLRLSCTASGFTFNAYAMSWVRQAPGKGLEWVSTISGSGSTTYYADSVKGRFTISRDNSKNTLDLQMNSLRAADTAVYYCAKVAGSNFFFDHWGQGTLVTVSS
VL: EIVMTQSPATLSVSPGERATLSCRASQSINSNLAWYQQKPGQAPRLLIYGAYTRATGIPDRFSGSGSGTEFTLTISSLQSEDFAVYYCQEFIMWPPWTFGLGTQVEIKR
B10: 46H7 (antibody, V domains shown)
VH: EVQLLESGGGMVQPGGSLRLSCAVSGFTFSRYAMSWVRQAPGKGLEWVSEMRGSSGSTYYADSVKGRFTISRDNSKNTLYLQMNSLRVEDTAIYYCAKEFSSNSLFDYWGQGTLVTVSS
VL: B9 VL with I29V, Q42R, Y52S, D60A, E90Q, I92Y, M93N, L101Q, Q104K
B11: 61G5 (antibody, V domains shown)
VH: QVQLVQSGAEVKKPGASVKVSCKASGYTFTSYDINWVRQATGQGLEWMGWMNPNSGNSGSVKKFRDRVTMTRNTSISTAYMELSSLRSEDTAVYYCVRLIGYSSAWKWSFQHWGQGTLVTVSS
VL: DIQMTQSPSSLSASVGDRVTITCQASRDISKYLNWYQQKPGKAPKLQIYDASNLETGVPSRFSGSGSGTDFTFTISSLQPEDIATYYCQHYDNIPITFGQGTRLEIKR

Target: T1, cyno TREM-1 on cells
Assay: cell-based or functional assay

Binder | Ab IC50-Cyno PBMC (Trial 1), TNFα release after cyno PGLYRP1/PGN | Ab IC50-Cyno PBMC (Trial 2), TNFα release after cyno PGLYRP1/PGN
B1 | 732 pM | 266 pM
B2 | 2000 pM | –
B3 | 6940 pM | 780 pM
B4 | 114 pM | 23.2 pM
B5 | 57.9 pM | 9.1 pM
B6 | 154 pM | 28.4 pM
B7 | 46.9 pM | 17.4 pM
B8 | 22.6 pM | 16.1 pM
B9 | 3770 pM | –
B10 | 95.1 pM | 9.7 pM
B11 | – | 2340 pM
